This assay has as its target 62 kDa active MMP-2. Kind of assay: enzyme inhibition kinetics.

What is called Ki is a measure of affinity in units of concentration, obtained from inhibition or displacement. A lower Ki goes with tighter binding. “TIMP-2-His6 Y90E expressed in HEK293H cells (from UniProt P16035 27-220) (natural protein)” displayed a Ki of 0.154 nM.

Values taken from PMC6135941.
